PMC3642082 (PLoS Pathogens, 2013)

Columns and labels:
[1] = biological target: T1, soluble CD4 (UniProt P01730); assay: ITC; conditions: both partners purified
T1 construct: also called sCD4

[2] = biological target: T2, JRFL gp120 monomer expressed in HEK 293S cells (HIV-1 clade B, isolate JR-FL, UniProt Q75760, strain); assay: ITC; conditions: both partners purified
T2 construct: also called gp120 with immature oligomannose glycans

| Binder | Kd [1] [nM] | binding result [2] |
| --- | --- | --- |
| JRFL gp120 monomer (near full-length gp120 monomeric construct) (natural protein, also called monomeric gp120) not shown | 21 |  |
| PGT121 Fab (Fab, V domains shown) VH: QMQLQESGPGLVKPSETLSLTCSVSGASISDSYWSWIRRSPGKGLEWIGYVHKSGDTNYSPSLKSRVNLSLDTSKNQVSLSLVAATAADSGKYYCARTLHGRRIYGIVAFNEWFTYFYMDVWGNGTQVTVSS VL: DISVAPGETARISCGEKSLGSRAVQWYQHRAGQAPSLIIYNNQDRPSGIPERFSGSPDSPFGTTATLTITSVEAGDEADYYCHIWDSRVPTKWVFGGGTTLTVL |  | binds |
| PGT122 Fab (Fab, V domains shown) VH: QVHLQESGPGLVKPSETLSLTCNVSGTLVRDNYWSWIRQPLGKQPEWIGYVHDSGDTNYNPSLKSRVHLSLDKSKNLVSLRLTGVTAADSAIYYCATTKHGRRIYGVVAFKEWFTYFYMDVWGKGTSVTVSS VL: VSVAPGQTARITCGEESLGSRSVIWYQQRPGQAPSLIIYNNNDRPSGIPDRFSGSPGSTFGTTATLTITSVEAGDEADYYCHIWDSRRPTNWVFGEGTTLIVL |  | binds |
| PGT123 Fab (Fab, V domains shown) VH: QLHLQESGPGLVKPPETLSLTCSVSGASINDAYWSWIRQSPGKRPEWVGYVHHSGDTNYNPSLKRRVTFSLDTAKNEVSLKLVDLTAADSATYFCARALHGKRIYGIVALGELFTYFYMDVWGKGTAVTVSS VL: SSMSVSPGETAKISCGKESIGSRAVQWYQQKPGQPPSLIIYNNQDRPAGVPERFSASPDFRPGTTATLTITNVDAEDEADYYCHIYDARGGTNWVFDRGTTLTVL |  | binds |
